# Starred links: 1 amine or outer side, 2 acyl side, 3 side chain; linkers in the order of their positions; H or OH if unused. Non-standard residues stand in square brackets, D forms with d. Groups on a side chain read outwards from the residue. No end group written: not given here. *: point of attachment. γGlu = O=C(O)[C@H](CCC(=O)[*:2])N[*:1]; Palmitoyl = CCCCCCCCCCCCCCCC(=O)*; αMeF = C[C@](N)(Cc1ccccc1)C(=O)O; αMeK = C[C@](N)(CCCCN)C(=O)O; αMeS = C[C@](N)(CO)C(=O)O; Aib = CC(C)(N)C(=O)O
# T1: GLP-1R (INS1e assay) (UniProt P32301 22-463, limits assumed)
# T1 sequence (looked up): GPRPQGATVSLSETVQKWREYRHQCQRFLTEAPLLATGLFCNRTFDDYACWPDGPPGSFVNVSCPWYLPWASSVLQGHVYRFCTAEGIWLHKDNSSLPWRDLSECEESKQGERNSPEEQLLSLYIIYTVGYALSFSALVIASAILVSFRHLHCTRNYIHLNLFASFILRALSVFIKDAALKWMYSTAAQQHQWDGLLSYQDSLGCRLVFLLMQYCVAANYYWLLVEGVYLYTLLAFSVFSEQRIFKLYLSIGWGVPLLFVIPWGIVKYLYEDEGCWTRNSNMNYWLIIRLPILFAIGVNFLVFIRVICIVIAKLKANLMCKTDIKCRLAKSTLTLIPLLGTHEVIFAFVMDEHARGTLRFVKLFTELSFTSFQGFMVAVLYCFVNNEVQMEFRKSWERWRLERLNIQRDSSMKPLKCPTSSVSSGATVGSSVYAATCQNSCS
# Biological target: T1, GLP-1R (INS1e assay)
# Test: cell-based or functional assay
Binder,INS1e assay EC50 GLP-1 R n1,INS1e assay EC50 GLP-1 R n2,INS1e assay EC50 Mean pM GLP-1R
H[Aib]EGS[αMeF]TSDV[αMeS]S[αMeF]LEGEAA[αMeK]EK([γGlu-Palmitoyl])IA[αMeF]VV[αMeK]GG-NH2 (N-terminus assumed; SMILES CCCCCCCCCCCCCCCC(=O)N[C@@H](CCC(=O)NCCCC[C@H](NC(=O)[C@H](CCC(=O)O)NC(=O)[C@](C)(CCCCN)NC(=O)[C@H](C)NC(=O)[C@H](C)NC(=O)[C@H](CCC(=O)O)NC(=O)CNC(=O)[C@H](CCC(=O)O)NC(=O)[C@H](CC(C)C)NC(=O)[C@](C)(Cc1ccccc1)NC(=O)[C@H](CO)NC(=O)[C@](C)(CO)NC(=O)[C@@H](NC(=O)[C@H](CC(=O)O)NC(=O)[C@H](CO)NC(=O)[C@@H](NC(=O)[C@](C)(Cc1ccccc1)NC(=O)[C@H](CO)NC(=O)CNC(=O)[C@H](CCC(=O)O)NC(=O)C(C)(C)NC(=O)[C@@H](N)Cc1c[nH]cn1)[C@@H](C)O)C(C)C)C(=O)N[C@H](C(=O)N[C@@H](C)C(=O)N[C@@](C)(Cc1ccccc1)C(=O)N[C@H](C(=O)N[C@H](C(=O)N[C@@](C)(CCCCN)C(=O)NCC(=O)NCC(N)=O)C(C)C)C(C)C)[C@@H](C)CC)C(=O)O) [SEQ ID NO 78],0.345 nM,0.346 nM,346 pM
H[Aib]EGS[αMeF]TSDV[αMeS]S[αMeF]LEGEAA[αMeK]K([γGlu-Palmitoyl])[αMeF]IA[αMeF]VV[αMeK]GG-NH2 (N-terminus assumed; SMILES CCCCCCCCCCCCCCCC(=O)N[C@@H](CCC(=O)NCCCC[C@H](NC(=O)[C@](C)(CCCCN)NC(=O)[C@H](C)NC(=O)[C@H](C)NC(=O)[C@H](CCC(=O)O)NC(=O)CNC(=O)[C@H](CCC(=O)O)NC(=O)[C@H](CC(C)C)NC(=O)[C@](C)(Cc1ccccc1)NC(=O)[C@H](CO)NC(=O)[C@](C)(CO)NC(=O)[C@@H](NC(=O)[C@H](CC(=O)O)NC(=O)[C@H](CO)NC(=O)[C@@H](NC(=O)[C@](C)(Cc1ccccc1)NC(=O)[C@H](CO)NC(=O)CNC(=O)[C@H](CCC(=O)O)NC(=O)C(C)(C)NC(=O)[C@@H](N)Cc1c[nH]cn1)[C@@H](C)O)C(C)C)C(=O)N[C@@](C)(Cc1ccccc1)C(=O)N[C@H](C(=O)N[C@@H](C)C(=O)N[C@@](C)(Cc1ccccc1)C(=O)N[C@H](C(=O)N[C@H](C(=O)N[C@@](C)(CCCCN)C(=O)NCC(=O)NCC(N)=O)C(C)C)C(C)C)[C@@H](C)CC)C(=O)O) [SEQ ID NO 79],0.289 nM,0.527 nM,408 pM
H[Aib]EGS[αMeF]TSDV[αMeS]S[αMeF]LEGEAA[αMeK]E[αMeF]IA[αMeF]VV[αMeK]K([γGlu-Palmitoyl])G-NH2 (N-terminus assumed; SMILES CCCCCCCCCCCCCCCC(=O)N[C@@H](CCC(=O)NCCCC[C@H](NC(=O)[C@](C)(CCCCN)NC(=O)[C@@H](NC(=O)[C@@H](NC(=O)[C@](C)(Cc1ccccc1)NC(=O)[C@H](C)NC(=O)[C@@H](NC(=O)[C@](C)(Cc1ccccc1)NC(=O)[C@H](CCC(=O)O)NC(=O)[C@](C)(CCCCN)NC(=O)[C@H](C)NC(=O)[C@H](C)NC(=O)[C@H](CCC(=O)O)NC(=O)CNC(=O)[C@H](CCC(=O)O)NC(=O)[C@H](CC(C)C)NC(=O)[C@](C)(Cc1ccccc1)NC(=O)[C@H](CO)NC(=O)[C@](C)(CO)NC(=O)[C@@H](NC(=O)[C@H](CC(=O)O)NC(=O)[C@H](CO)NC(=O)[C@@H](NC(=O)[C@](C)(Cc1ccccc1)NC(=O)[C@H](CO)NC(=O)CNC(=O)[C@H](CCC(=O)O)NC(=O)C(C)(C)NC(=O)[C@@H](N)Cc1c[nH]cn1)[C@@H](C)O)C(C)C)[C@@H](C)CC)C(C)C)C(C)C)C(=O)NCC(N)=O)C(=O)O) [SEQ ID NO 71],0.604 nM,0.841 nM,723 pM
H[Aib]EGS[αMeF]TSDV[αMeS]S[αMeF]LEGEAA[αMeK]E[αMeF]IA[αMeF]K([γGlu-Palmitoyl])V[αMeK]GG-NH2 (N-terminus assumed; SMILES CCCCCCCCCCCCCCCC(=O)N[C@@H](CCC(=O)NCCCC[C@H](NC(=O)[C@](C)(Cc1ccccc1)NC(=O)[C@H](C)NC(=O)[C@@H](NC(=O)[C@](C)(Cc1ccccc1)NC(=O)[C@H](CCC(=O)O)NC(=O)[C@](C)(CCCCN)NC(=O)[C@H](C)NC(=O)[C@H](C)NC(=O)[C@H](CCC(=O)O)NC(=O)CNC(=O)[C@H](CCC(=O)O)NC(=O)[C@H](CC(C)C)NC(=O)[C@](C)(Cc1ccccc1)NC(=O)[C@H](CO)NC(=O)[C@](C)(CO)NC(=O)[C@@H](NC(=O)[C@H](CC(=O)O)NC(=O)[C@H](CO)NC(=O)[C@@H](NC(=O)[C@](C)(Cc1ccccc1)NC(=O)[C@H](CO)NC(=O)CNC(=O)[C@H](CCC(=O)O)NC(=O)C(C)(C)NC(=O)[C@@H](N)Cc1c[nH]cn1)[C@@H](C)O)C(C)C)[C@@H](C)CC)C(=O)N[C@H](C(=O)N[C@@](C)(CCCCN)C(=O)NCC(=O)NCC(N)=O)C(C)C)C(=O)O) [SEQ ID NO 74],0.0774 nM,0.127 nM,102 pM
H[Aib]EGS[αMeF]TSDV[αMeS]S[αMeF]LEGEAA[αMeK]E[αMeF]IK([γGlu-Palmitoyl])[αMeF]VV[αMeK]GG-NH2 (N-terminus assumed; SMILES CCCCCCCCCCCCCCCC(=O)N[C@@H](CCC(=O)NCCCC[C@H](NC(=O)[C@@H](NC(=O)[C@](C)(Cc1ccccc1)NC(=O)[C@H](CCC(=O)O)NC(=O)[C@](C)(CCCCN)NC(=O)[C@H](C)NC(=O)[C@H](C)NC(=O)[C@H](CCC(=O)O)NC(=O)CNC(=O)[C@H](CCC(=O)O)NC(=O)[C@H](CC(C)C)NC(=O)[C@](C)(Cc1ccccc1)NC(=O)[C@H](CO)NC(=O)[C@](C)(CO)NC(=O)[C@@H](NC(=O)[C@H](CC(=O)O)NC(=O)[C@H](CO)NC(=O)[C@@H](NC(=O)[C@](C)(Cc1ccccc1)NC(=O)[C@H](CO)NC(=O)CNC(=O)[C@H](CCC(=O)O)NC(=O)C(C)(C)NC(=O)[C@@H](N)Cc1c[nH]cn1)[C@@H](C)O)C(C)C)[C@@H](C)CC)C(=O)N[C@@](C)(Cc1ccccc1)C(=O)N[C@H](C(=O)N[C@H](C(=O)N[C@@](C)(CCCCN)C(=O)NCC(=O)NCC(N)=O)C(C)C)C(C)C)C(=O)O) [SEQ ID NO 76],0.326 nM,0.531 nM,429 pM
H[Aib]EGS[αMeF]TSDV[αMeS]S[αMeF]LEGEAA[αMeK]E[αMeF]IA[αMeF]VVK([γGlu-Palmitoyl])GG-NH2 (N-terminus assumed; SMILES CCCCCCCCCCCCCCCC(=O)N[C@@H](CCC(=O)NCCCC[C@H](NC(=O)[C@@H](NC(=O)[C@@H](NC(=O)[C@](C)(Cc1ccccc1)NC(=O)[C@H](C)NC(=O)[C@@H](NC(=O)[C@](C)(Cc1ccccc1)NC(=O)[C@H](CCC(=O)O)NC(=O)[C@](C)(CCCCN)NC(=O)[C@H](C)NC(=O)[C@H](C)NC(=O)[C@H](CCC(=O)O)NC(=O)CNC(=O)[C@H](CCC(=O)O)NC(=O)[C@H](CC(C)C)NC(=O)[C@](C)(Cc1ccccc1)NC(=O)[C@H](CO)NC(=O)[C@](C)(CO)NC(=O)[C@@H](NC(=O)[C@H](CC(=O)O)NC(=O)[C@H](CO)NC(=O)[C@@H](NC(=O)[C@](C)(Cc1ccccc1)NC(=O)[C@H](CO)NC(=O)CNC(=O)[C@H](CCC(=O)O)NC(=O)C(C)(C)NC(=O)[C@@H](N)Cc1c[nH]cn1)[C@@H](C)O)C(C)C)[C@@H](C)CC)C(C)C)C(C)C)C(=O)NCC(=O)NCC(N)=O)C(=O)O) [SEQ ID NO 72],4.26 nM,8.07 nM,6160 pM
H[Aib]EGS[αMeF]TSDV[αMeS]S[αMeF]LEGEAA[αMeK]E[αMeF]IAK([γGlu-Palmitoyl])VV[αMeK]GG-NH2 (N-terminus assumed; SMILES CCCCCCCCCCCCCCCC(=O)N[C@@H](CCC(=O)NCCCC[C@H](NC(=O)[C@H](C)NC(=O)[C@@H](NC(=O)[C@](C)(Cc1ccccc1)NC(=O)[C@H](CCC(=O)O)NC(=O)[C@](C)(CCCCN)NC(=O)[C@H](C)NC(=O)[C@H](C)NC(=O)[C@H](CCC(=O)O)NC(=O)CNC(=O)[C@H](CCC(=O)O)NC(=O)[C@H](CC(C)C)NC(=O)[C@](C)(Cc1ccccc1)NC(=O)[C@H](CO)NC(=O)[C@](C)(CO)NC(=O)[C@@H](NC(=O)[C@H](CC(=O)O)NC(=O)[C@H](CO)NC(=O)[C@@H](NC(=O)[C@](C)(Cc1ccccc1)NC(=O)[C@H](CO)NC(=O)CNC(=O)[C@H](CCC(=O)O)NC(=O)C(C)(C)NC(=O)[C@@H](N)Cc1c[nH]cn1)[C@@H](C)O)C(C)C)[C@@H](C)CC)C(=O)N[C@H](C(=O)N[C@H](C(=O)N[C@@](C)(CCCCN)C(=O)NCC(=O)NCC(N)=O)C(C)C)C(C)C)C(=O)O) [SEQ ID NO 75],0.0497 nM,0.063 nM,56 pM
